Source: patent US7235648B1, “Yeast cells engineered to produce pheromone system protein surrogates, and uses therefor” (Cadus Technologies, Inc., priority 1993, dated 2007)

B1: GPA141-Gαi2: first 41 amino acids of GPA1 fused to human Gαi2 (protein)
chain: MGCTVSTQTIGDESDPFLQNKRANDVIEQSLQLEKQRDKNEVKLLLLGAGESGKSTIVKQMKIIHE
B2: C5a: 74 amino acid polypeptide that derives from the fifth component of complement; anaphylatoxin (protein)
chain: TLQKKIEEIAAKYKHSVVKKCCYDGACVNNDETCEQRAARISLGPRCIKAFTECCVVASQLRANISHKDMQLGR

Tests used:
yeast Gβγ = target: T1, yeast Gβγ (Saccharomyces cerevisiae, UniProt P18851+P18852); experiment: Coupling of Gα subunits and hybrids to yeast Gβγ: complementation of gpa1 growth arrest phenotype and fus1-HIS3 transcription; type: cell-based
T1 construct: Endogenous Gβγ subunits will be provided by the yeast STE4 and STE18 loci; endogenous in cells; host or cells: S. cerevisiae gpa1 tester strains
T1 sequence (P18851 1-423): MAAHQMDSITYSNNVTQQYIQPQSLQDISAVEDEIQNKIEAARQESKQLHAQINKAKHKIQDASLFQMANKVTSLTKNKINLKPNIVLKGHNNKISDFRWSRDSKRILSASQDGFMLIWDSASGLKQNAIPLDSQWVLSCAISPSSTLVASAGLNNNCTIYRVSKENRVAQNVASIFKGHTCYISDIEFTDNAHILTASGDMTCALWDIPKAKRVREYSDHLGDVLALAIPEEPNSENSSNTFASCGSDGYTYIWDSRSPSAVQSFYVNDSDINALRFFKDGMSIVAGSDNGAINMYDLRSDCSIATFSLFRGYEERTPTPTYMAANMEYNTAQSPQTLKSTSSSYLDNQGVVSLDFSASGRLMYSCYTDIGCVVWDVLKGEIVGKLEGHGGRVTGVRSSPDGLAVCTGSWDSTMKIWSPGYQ
T1 sequence (P18852 1-107 limits assumed): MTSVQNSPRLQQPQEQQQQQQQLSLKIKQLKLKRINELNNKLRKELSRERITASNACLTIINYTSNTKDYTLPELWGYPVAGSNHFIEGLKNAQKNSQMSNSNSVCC
From the text: We have tested the hypothesis that there are switch region determinants involved in the association of Gα with Gβγ by constructing a series of hybrid Gα proteins encoding portions of GPA1 and GαS in different combinations (FIG. 11).
Preferably, levels of Gα and Gβγ subunits are balanced. For example, heterologous Gα subunits may be expressed from a low copy (CEN ARS) vector containing the endogenous yeast GPA1 promotor and the GPA1 3′ untranslated region. The minimum criterion, applied to a heterologous Gα subunit with respect to its ability to couple functionally to the yeast pheromone pathway, is that it complement a gpa1 genotype when expressed from the GPA1 promoter on low copy plasmids or from an integrated, single copy gene. In the work described in this application, all heterologous Gα subunits have been assayed in two biological systems.

C5a receptor [1] = target: T2, C5a receptor (Homo sapiens, UniProt P21730); experiment: Coupling of the C5a receptor to Gα chimeras in yeast; type: cell-based; set-up: expressed in transfected cells; host or cells: S. cerevisiae CY455 / CY878 carrying GPA1(41)-Gαi2, plasmid Cadus 1303; conditions: GPA1 promoter; single copy integrated or low copy plasmid
T2 sequence (P21730 1-350): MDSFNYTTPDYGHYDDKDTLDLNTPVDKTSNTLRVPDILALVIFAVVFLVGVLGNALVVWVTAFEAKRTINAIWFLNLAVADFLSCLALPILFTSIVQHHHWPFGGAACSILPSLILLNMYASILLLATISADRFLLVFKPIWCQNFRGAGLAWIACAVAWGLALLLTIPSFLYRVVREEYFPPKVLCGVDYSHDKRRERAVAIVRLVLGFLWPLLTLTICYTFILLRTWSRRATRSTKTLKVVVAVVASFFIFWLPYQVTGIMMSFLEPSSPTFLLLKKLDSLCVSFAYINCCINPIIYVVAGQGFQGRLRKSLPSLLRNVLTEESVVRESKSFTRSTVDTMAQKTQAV
Procedure: Coupling by chimeric Gα_proteins._The Gα chimeras described above were tested for the ability to couple a mammalian G protein-coupled receptor to the pheromone response pathway in yeast. Results obtained using GPA141-Gαi2 to couple the human C5a receptor to the pheromone response pathway in autocrine strains of yeast are disclosed in Example 10 above.
With this phenomenon, there is an increase in growth on selective media for strains containing heterologous receptor in the absence of ligand. It is possible that some receptor antagonists would decrease LIRMA. It has been noted (Milano, et al. 1994) that specific antagonists reduce LIRMA of the β2 adrenergic receptor when that receptor is overexpressed in transgenic mice.

C5a receptor [2] = target: T2, C5a receptor; set-up: host or cells: mammalian cells (not specified); conditions: mammalian cells; Boulay et al. 1991; read-out: binding constant of C5a to its receptor; cited from earlier work
induced HL60 cells = target: T3, induced HL60 cells (Homo sapiens, UniProt P21730); experiment: Competition with radiolabeled C5a for binding on induced HL60 cells; conditions: C5a expressed in yeast
T3 construct: endogenous in cells; host or cells: induced HL60 cells
T3 sequence (P21730 1-350): T2 sequence (P21730 1-350)

C5a receptor [3] = target: T2, C5a receptor; experiment: Autocrine yeast expressing human C5a receptor and human C5a, growth read-out (fus1-HIS3); type: cell-based; set-up: expressed in transfected cells; host or cells: S. cerevisiae CY455 / CY878 carrying GPA1(41)-Gαi2, plasmid Cadus 1303
From the text: The strain used for this analysis, CY455 (MATαtbt1-1 ura3 leu2 trp1 his3 fus1-HIS3 can1 ste14::TRP1 ste3*1156), contains the following significant modifications. A pheromone inducible HIS3 gene, fus1-HIS3, is integrated at the FUS1 locus. A hybrid gene containing sequence encoding the first 41 amino acids of GPA1 (the yeast Gα subunit) fused to sequence encoding human Gαi2a (minus codons for the N-terminal 33 amino acids) replaces GPA1 at its normal chromosomal location. The yeast STE14 gene is disrupted to lower the basal level of signaling through the pheromone response pathway. The yeast a-factor receptor gene, STE3, is deleted. The last two modifications are probably not essential but appear to improve the signal-to-noise ratio. […]
Three colonies were picked from each transformation and grown overnight in media lacking leucine and uracil, at pH 6.8 with 25 mM PIPES (LEU^− URA^− pH6.8 with 25 mM PIPES). […] The optical density at 600 nm of a 1/20 dilution of these cultures was determined and the cultures were diluted into 25 mM PIPES pH 6.8 to a final OD600 of 0.2. […] For verification of pheromone pathway activation and quanti-fication of the stimulation, the activity of the fus1 promoter was determined colorometrically using a fus1-lacZ fusion in a similar set of strains. […]

Molecule | functional complementation of the growth arrest phenotype of gpa1 strains (yeast Gβγ) | Result (coupling of the C5a receptor to Gα chimeras in yeast) (C5a receptor [1]) | Kd (C5a receptor [2]) [nM] | competition for binding with radiolabeled C5a (induced HL60 cells) | growth on selective plates lacking histidine (pheromone pathway activation via C5a receptor) (C5a receptor [3]; CY455 R+L+ strain, pH 6.8, 1 mM aminotriazole) | aminotriazole concentration on which the R+L+ strain will grow (C5a receptor [3]; CY455 R+L+, highest concentration tested)
B1 | functionally complement | GPA141-Gαi2single copy, Good signal to noise ratio: |  |  |  | 
B2 |  |  | 1 | compete for binding | show growth on the selective plates | up to 5 mM
